From US20140356359A1 (RINAT NEUROSCIENCE, published 2014)

How the values were obtained:
[1] = biological target: full-length cyno GHR on transfected HEK293 cells (cynomolgus monkey); assay: cell-based or functional assay
[2] = biological target: T1, human GHR (as in Tables 1 and 2) (human, UniProt P10912 49-253, limits assumed); assay: Biacore, 25 C; 25 C (no asterisk)
T1 sequence: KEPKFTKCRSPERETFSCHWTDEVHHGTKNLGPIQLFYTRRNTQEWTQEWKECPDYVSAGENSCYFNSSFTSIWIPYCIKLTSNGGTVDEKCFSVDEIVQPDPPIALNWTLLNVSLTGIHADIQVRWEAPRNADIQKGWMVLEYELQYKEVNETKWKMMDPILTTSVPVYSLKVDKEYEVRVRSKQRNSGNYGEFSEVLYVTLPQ

[3] = biological target: T1, human GHR (as in Tables 1 and 2); assay: Biacore, Fab, 37 C
[4] = biological target: T1, human GHR (as in Tables 1 and 2); assay: Biacore, Fab, 25 C
[5] = biological target: T2, cyno GHR, his-tagged monomer of amino acids 31-235 of the extracellular domain (cynomolgus monkey, UniProt Q9XSZ1 49-253 (Papio anubis entry)); assay: Biacore 2000, antibody captured on anti-human Fc, GHR as analyte, 25 C
T2 construct: not shown: his tag
T2 chain: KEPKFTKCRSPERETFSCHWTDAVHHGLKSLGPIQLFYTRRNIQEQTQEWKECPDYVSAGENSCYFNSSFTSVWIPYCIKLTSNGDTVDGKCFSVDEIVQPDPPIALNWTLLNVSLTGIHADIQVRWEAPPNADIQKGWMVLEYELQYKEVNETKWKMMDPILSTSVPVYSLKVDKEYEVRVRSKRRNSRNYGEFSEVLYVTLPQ
Procedure: (§1) An anti-human Fc sensor chip was prepared by activating all flow cells of a Biacore™ CM4 sensor chip with a 1:1 (v/v) mixture of 400 mM ethyl-N-(3-diethylaminopropyl)carbodiimide (EDC, Biacore™) and 100 mM N-hydroxysuccinimide (NHS, Biacore™) for 7 minutes, at a flow rate of 10 μL/min. […] All flow cells were blocked with 100 mM ethylenediamine in 150 mM borate buffer pH 8.5 for 7 minutes at 10 μL/min.
(§2) Antibodies were captured onto downstream flow cells (flow cells 2, 3 and 4) at 4 μg/mL at a flow rate of 10 μL/min for 1 minute. Different antibodies were captured on each flow cell. Flow cell 1 was used as a reference surface. Following capture of antibodies, analyte (buffer, human GHR or cyno GHR) was injected at 30 μL/min on all flow cells for two minutes. […] After the analyte injection, dissociation was monitored for 30 minutes (for the 400 nM GHR cycle) or 30 seconds (all other cycles) followed by regeneration of all flow cells with two 30-second injections of 75 mM phosphoric acid. A 5-membered dilution series of GHR was analyzed using this method, where the top concentration was 400 nM and the dilution factor was 3-fold. Buffer cycles were collected with both 30 minute and 30 second dissociation times for double-referencing purposes. The double-referenced sensorgrams were fit globally to a simple 1:1 Langmuir with mass transport binding model.
(§3) The experiments were performed at 25° C. using a running buffer of 10 mM HEPES, 150 mM NaCl, 0.05% (v/v) Tween-20™, pH 7.4.

[6] = biological target: T3, human GHR, his-tagged monomer of amino acids 31-235 of the extracellular domain (human, UniProt P10912 49-253); assay: as above
T3 construct: not shown: his tag
T3 sequence: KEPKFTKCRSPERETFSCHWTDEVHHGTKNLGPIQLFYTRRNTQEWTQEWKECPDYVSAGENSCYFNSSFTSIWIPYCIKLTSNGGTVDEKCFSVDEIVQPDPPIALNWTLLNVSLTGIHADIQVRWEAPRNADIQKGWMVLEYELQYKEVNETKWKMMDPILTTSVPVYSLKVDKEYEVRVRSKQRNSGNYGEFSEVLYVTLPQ
Procedure: as §1, §2, §3

[7] = biological target: T2, cyno GHR, his-tagged monomer of amino …; assay: Biacore 2000, antibody captured on anti-human Fc, GHR as analyte, 25 C, replicate
Procedure: as §1, §2, §3

[8] = biological target: T3, human GHR, his-tagged monomer of amino …; assay: as above
Procedure: as §1, §2, §3

[9] = biological target: T1, human GHR (as in Tables 1 and 2); assay: Biacore, IgG2ΔA, 25 C
[10] = biological target: T1, human GHR (as in Tables 1 and 2); assay: Biacore, 37 C (asterisk)
[11] = biological target: T4, hGHR-hFc fusion protein (R&D Systems Catalog#1210-GR) (human, UniProt P10912 19-264); assay: Biacore T200, hGHR-hFc captured on anti-human Fc, Fab as analyte, 37 C
T4 construct: bought; also called hGHR/Fc; human GHR/hFc; not shown: human Fc of the bought fusion protein
T4 sequence: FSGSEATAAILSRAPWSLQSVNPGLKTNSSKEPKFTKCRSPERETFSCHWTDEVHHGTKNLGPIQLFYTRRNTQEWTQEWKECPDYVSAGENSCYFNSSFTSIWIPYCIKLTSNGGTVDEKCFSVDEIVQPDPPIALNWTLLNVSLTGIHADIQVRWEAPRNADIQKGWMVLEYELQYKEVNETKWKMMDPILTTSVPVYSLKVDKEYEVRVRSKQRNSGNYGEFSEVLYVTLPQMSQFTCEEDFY
Procedure: as §1, with “EDC” for “ethyl-N-(3-diethylaminopropyl)carbodiimide (EDC, Biacore™)”, “NHS” for “N-hydroxysuccinimide (NHS, Biacore™)”
The kinetics assay was run using a methodology with varying dissociation times as described in Katsamba et al., supra. […] Flow cell 1 was used as a reference surface. Following capture of hGHR-hFc, analyte (buffer, SS1 Fab or Ab13 Fab) was injected at 30 μL/min on all flow cells for two minutes. After the analyte injection, dissociation was monitored for 30 minutes (400 nM Fab cycle) or 60 seconds (all other cycles) followed by regeneration with two 30-second injections of 75 mM phosphoric acid. A 5-membered dilution series of Fab was analyzed using this method, where the top concentration was 400 nM and the dilution factor was 3-fold. Buffer cycles were collected at both 30 minute and 60 second dissociation times for double-referencing purposes. The double-referenced sensorgrams were fit globally to a simple 1:1 Langmuir with mass transport binding model (with a local Rmax parameter for each flow cell).
(§4) The experiments were performed at 37° C. using a running buffer of 10 mM HEPES, 150 mM NaCl, 0.05% (v/v) Tween-20™, pH 7.4.

[12] = biological target: T2, cyno GHR, his-tagged monomer of amino …; assay: Biacore T200, Fab captured on anti-human kappa, GHR as analyte, 37 C
Procedure: as §1, with “kappa” for “Fc”, “EDC” for “ethyl-N-(3-diethylaminopropyl)carbodiimide (EDC, Biacore™)”, “NHS” for “N-hydroxysuccinimide (NHS, Biacore™)”
(§5) The kinetics assay was run using a methodology with varying dissociation times as described in Katsamba et al., supra. Fabs were captured onto downstream flow cells (flow cells 2, 3 and 4) at 2 μg/mL at a flow rate of 10 μL/min for 2 minutes. Different Fabs were captured on each flow cell. Flow cell 1 was used as a reference surface. Following capture of fabs, analyte (buffer, human GHR or cyno GHR) was injected at 30 μL/min on all flow cells for two minutes. […] A 6-membered dilution series of GHR was analyzed using this method, where the top concentration was 400 nM and the dilution factor was 3-fold. Buffer cycles were collected with both 30 minute and 60 second dissociation times for double-referencing purposes. The double-referenced sensorgrams were fit globally to a simple 1:1 Langmuir with mass transport binding model.
as §4

[13] = biological target: T3, human GHR, his-tagged monomer of amino …; assay: as above
Procedure: as §1, with “kappa” for “Fc”, “EDC” for “ethyl-N-(3-diethylaminopropyl)carbodiimide (EDC, Biacore™)”, “NHS” for “N-hydroxysuccinimide (NHS, Biacore™)”
as §5, §4

Sequence of full-length cyno GHR on transfected HEK293 cells (cynomolgus monkey) (Q9XSZ1 other isoform, or with tags, fused parts or gaps limits assumed): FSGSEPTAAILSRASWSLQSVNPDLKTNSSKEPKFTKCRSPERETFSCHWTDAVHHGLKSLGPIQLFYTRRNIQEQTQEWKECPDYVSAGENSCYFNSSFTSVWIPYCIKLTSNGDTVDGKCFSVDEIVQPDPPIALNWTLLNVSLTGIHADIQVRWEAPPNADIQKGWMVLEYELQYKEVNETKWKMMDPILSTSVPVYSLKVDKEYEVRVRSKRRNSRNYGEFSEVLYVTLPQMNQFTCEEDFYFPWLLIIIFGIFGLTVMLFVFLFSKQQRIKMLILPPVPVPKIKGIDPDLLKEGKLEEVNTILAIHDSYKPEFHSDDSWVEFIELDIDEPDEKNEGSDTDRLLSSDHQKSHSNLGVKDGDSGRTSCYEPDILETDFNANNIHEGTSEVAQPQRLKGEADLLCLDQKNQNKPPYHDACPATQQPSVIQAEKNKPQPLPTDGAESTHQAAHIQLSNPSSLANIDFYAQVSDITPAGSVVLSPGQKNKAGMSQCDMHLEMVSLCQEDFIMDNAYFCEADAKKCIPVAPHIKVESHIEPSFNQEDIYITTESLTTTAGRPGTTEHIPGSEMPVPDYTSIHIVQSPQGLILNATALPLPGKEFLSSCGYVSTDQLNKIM

## human growth hormone (from UniProt P01241 27-217) (ligand)
[1]
  STAT5 phosphorylation, fluorescent signal (Ave); 4.5 nM GH (fluorescent signal): 562
  STAT5 phosphorylation, fluorescent signal (ave); 4.5 nM GH (fluorescent signal): 847

B1: SS4 Fab (Fab, V domains shown)
VH: EVQLVESGGGLVKPGGSLRLSCAASGFTFSDAWMDWVRQAPGKGLEWVAEIRSKANNHATYYAESVKGRFTISRDDSKNTLYLQMNSLKTEDTAVYYCTLYRDYWGQGTLVTVSS
VL: EIVLTQSPGTLSLSPGERATLSCTATSSVSSSYLHWYQQKPGQAPRLLIYSTSNLASGIPDRFSGSGSGTDFTLTISRLEPEDFAVYYCHQYHRSTPTFGGGTKVEIK
notes: Fab
[2]
  Kd: 28.4 nM
[3]
  Kd: 124 nM
[4]
  Kd: 28.4 nM

B2: SS1 hIgG2Δa (antibody, V domains shown)
VH: EVQLVESGGGLVKPGGSLRLSCAASGFTFSDAWMDWVRQAPGKGLEWVAEIRSKANYHATYYAESVKGRFTISRDDSKNTLYLQMNSLKTEDTAVYYCTLIRDYWGQGTLVTVSS
VL: EIVLTQSPGTLSLSPGERATLSCTATSSVSSSYLNWYQQKPGQAPRLLIYSTSNLASGIPDRFSGSGSGTDFTLTISRLEPEDFAVYYCHQYHRSTPTFGGGTKVEIKR
notes: humanized IgG; also called SS1 (replicate)
[5]
  Kd: 1.3 nM
  koff: 0.0001 s⁻¹
  kon: 81000 M⁻¹ s⁻¹
  t 1/2: 1.85 h
[6]
  Kd: 1 nM
  koff: 7.7e-05 s⁻¹
  kon: 74000 M⁻¹ s⁻¹
  t 1/2: 2.5 h
[7]
  Kd: 1.2 nM
  koff: 0.00011 s⁻¹
  kon: 89000 M⁻¹ s⁻¹
  t 1/2: 1.78 h
[8]
  Kd: 0.8 nM
  koff: 6.4e-05 s⁻¹
  kon: 77000 M⁻¹ s⁻¹
  t 1/2: 3 h

B3: SS3 hIgG2Δa (antibody, V domains shown)
VH: EVQLVESGGGLVKPGGSLRLSCAASGFTFSDAWMDWVRQAPGKGLEWVAEIRSKANNHATYYAESVKGRFTISRDDSKNTLYLQMNSLKTEDTAVYYCTLFRDYWGQGTLVTVSS
VL: EIVLTQSPGTLSLSPGERATLSCTATSSVSSSYLNWYQQKPGQAPRLLIYSTSNLASGIPDRFSGSGSGTDFTLTISRLEPEDFAVYYCHQYHRFTPTFGGGTKVEIKR
notes: also called SS3 IgG2ΔA
[9]
  Kd: 1.7 nM

B4: SS4 IgG2ΔA (antibody, V domains shown)
VH: EVQLVESGGGLVKPGGSLRLSCAASGFTFSDAWMDWVRQAPGKGLEWVAEIRSKANNHATYYAESVKGRFTISRDDSKNTLYLQMNSLKTEDTAVYYCTLYRDYWGQGTLVTVSS
VL: EIVLTQSPGTLSLSPGERATLSCTATSSVSSSYLHWYQQKPGQAPRLLIYSTSNLASGIPDRFSGSGSGTDFTLTISRLEPEDFAVYYCHQYHRSTPTFGGGTKVEIK
notes: IgG2ΔA
[9]
  Kd: 43.1 nM

B5: TM1 Fab (Fab, V domains shown)
VH: EVQLVESGGGLVKPGGSLRLSCAASGFTFSDAWMDWVRQAPGKGLEWVAEIRSKANYHATYYAESVKGRFTISRDDSKNTLYLQMNSLKTEDTAVYYCTLIRDYWGQGTLVTVSS
VL: EIVLTQSPGTLSLSPGERATLSCTATSSVSSWYLHWYQQKPGQAPRLLIYSTSNLASGIPDRFSGSGSGTDFTLTISRLEPEDFAVYYCHQYHRSTPTFGGGTKVEIK
notes: Fab
[3]
  Kd: 3.4 nM
[10]
  Kd: 3.4 nM

B6: SS3 Fab (Fab, V domains shown)
VH: EVQLVESGGGLVKPGGSLRLSCAASGFTFSDAWMDWVRQAPGKGLEWVAEIRSKANNHATYYAESVKGRFTISRDDSKNTLYLQMNSLKTEDTAVYYCTLFRDYWGQGTLVTVSS
VL: EIVLTQSPGTLSLSPGERATLSCTATSSVSSSYLNWYQQKPGQAPRLLIYSTSNLASGIPDRFSGSGSGTDFTLTISRLEPEDFAVYYCHQYHRFTPTFGGGTKVEIK
notes: Fab
[3]
  Kd: 1.99 nM
[10]
  Kd: 1.99 nM

B7: TM9 Fab (Fab, V domains shown)
VH: EVQLVESGGGLVKPGGSLRLSCAASGFTFSDAWMDWVRQAPGKGLEWVAEIRSKANYHATYYAESVKGRFTISRDDSKNTLYLQMNSLKTEDTAVYYCTLIRDYWGQGTLVTVSS
VL: EIVLTQSPGTLSLSPGERATLSCTATSSVSSSYLHWYQQKPGQAPRLLIYSTSNLASGIPDRFSGSGSGTDFTLTISRLEPEDFAVYYCHQYHRGTPTFGGGTKVEIK
notes: Fab
[3]
  Kd: 3.3 nM
[10]
  Kd: 3.3 nM

B8: SS1 Fab (Fab, V domains shown)
VH: EVQLVESGGGLVKPGGSLRLSCAASGFTFSDAWMDWVRQAPGKGLEWVAEIRSKANYHATYYAESVKGRFTISRDDSKNTLYLQMNSLKTEDTAVYYCTLIRDYWGQGTLVTVSS
VL: EIVLTQSPGTLSLSPGERATLSCTATSSVSSSYLNWYQQKPGQAPRLLIYSTSNLASGIPDRFSGSGSGTDFTLTISRLEPEDFAVYYCHQYHRSTPTFGGGTKVEIK
notes: Fab
[11]
  Kd: 1 nM
  koff: 0.000359 s⁻¹
  kon: 374000 M⁻¹ s⁻¹
  t 1/2: 0.537 h
[3]
  Kd: 1.6 nM
[10]
  Kd: 1.56 nM
[12]
  Kd: 3.2 nM
  koff: 0.000576 s⁻¹
  kon: 182000 M⁻¹ s⁻¹
  t 1/2: 0.333 h
[13]
  Kd: 1.6 nM
  koff: 0.000215 s⁻¹
  kon: 138000 M⁻¹ s⁻¹
  t 1/2: 0.895 h
